Test: yeast display, Sf9 membrane polyspecificity reagent, FACS + sequencing; frameworks hold sequencing errors
Procedure, shortened: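 A nanobody's polyreactivity label depends on the gate it was sorted from. Yeast display cells were stained with 10% biotinylated, detergent-solubilized Sf9 membrane reagent for 1 hour at 4 °C, enriched on streptavidin microbeads and sorted by FACS. The low and high (top ~1%) gates were set on anti-HA fluorescence for expression and streptavidin fluorescence for reagent binding.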

| Sequence | polyreactivity (PSR sort gate) |
| --- | --- |
| QVQLVESGGGLVQAGGSLRLSCAASGLTFWANTMGWYRQAPGKERELVAAITWSGGSTYYADSVKGRFTISRDNAKNTVNLQMNSLKPEDTAVYYCAADEYFAAGYSYYYWGQGSQVTVSS | low polyreactivity |
| QVQLVESGGGLVQAGGSLRLSCAASGFTFRTYAMGWYRQAPGKERELVAAISKSGGSTYYADSVKGRFTISRDNAKNTVYLQMNSLTPEDTAVYYCNAGEASWFSLHYYWGQGTQVTVSS | high polyreactivity |
| QVQLVESGGGIVQAGGILRLSSAASGRTFYSYTMGWSRQEPGKERELVAAINRGGSTYYADSVKGRFTISRDKAKNTVYLQMNSLKPEDTEVYYCAVGYAHSSNRRYYYKKTHGYWGQGTQVTVSS | low polyreactivity |
| QVQLVDSGGGLVQAGGSLRLSCAASGSIYSSYAMGWYRQAPGKERELVASISSGGSKNYADSVKGRFTISRVNAKNTVYLQMNSLKPEDTAFYYCNVDLYNWRGDYTGYDYWGQGTQVTVSS | low polyreactivity |
| QVQLVESGGGLVQAGGSLRLSCAASGLTFPYYVMGWYIQAPGKERELVAAIDDGGGSTYYADSVKGRFTISRDNAKNTVYLQMNSLKPEDTAVYYCAAQVDYLAHYGYWGQGTQVTVSS | low polyreactivity |
| QVQLQESGGGLEQAGGSLRLSCAASGYIFPTAIKGWYRQAPGKERKLVAAINPGSNTYYADSVKGRFTFSRDNANNSVYLQMNSLKPEDAAVYYCGVSIWLVGTLDYWGQGTQVTVSS | low polyreactivity |
| QVQLVESCGGLVQAGGSHRLSCAASGSTFAYNDMGWYRQAPGKERELVADIRSGGNTNYADSVKGRFTISRDNAKNTVYLQMNSLKPEDTAVYYRATDGYRIDVYHPDYRYDYWGQGTQVTVSS | low polyreactivity |
| QVQLVESGGGLVQAGGSLRLSCAASGNTFLVNAKGWYRQAPGKERELVATIRRGGSTNYADSVKGRFTISRDNAKNTVYLLMNSLKPEDTAVYYCNADRVGYWSSNMDYWGQGTEVTVSS | low polyreactivity |
| QVQLVESGGGLVQAGGSLRLSCAASGIILSPYTMGWYRQAPGKERELVAGISRSGGTTYYADSVKGRFTISRDNAKNTVYLQMNSLKPEDTAVYYCAAGLIYGYSGYDSWGQGTQVTVSS | low polyreactivity |
| QVQLVESGGGLVQAGGSLRLSCAASGSTYAGYAMGWYRQAPGKERELVAAISRRGGSTYYADSVKGRFTISRDNAKNTVYLQMNSLKPEDTAVNYCNRDKYLRDPDYDYWGQGTQVTVSS | low polyreactivity |
| QVQLVESGGGVVQAGGSLRLSCAASGRTIDPKAMGWYRQAPGKERELVAAITRTGVRTYYADSVKGRFTISRDNAKNTVYLQLNILKPEYTAVYYCNRYGARSNDYWGQGTQVSVSS | low polyreactivity |
| QVQLVESGGGLVQAGGSLRLSCAASGSTLFFYTMGWYRQAPGKERELVAAITRGGSTYYADSVKGRFTISRDNAKNTVYLQLNSLKPEDTAVYYCAAPYVRPKKVYNYDYWGQGTQVTVSS | high polyreactivity |
| QVQLVESGGGLVQAGGSLRLSCAASGRIFYLKAMGWYRQAPGTERELVAAINTSGDSTYYADSVKGRFTISRDNAKNTVDLQMNSLKPEDTAVSYCAAYVIGPDQFIYDYWGQGTQVTVSS | low polyreactivity |
| QVQHVESGGGLVQAGGSLRLSCASSGSTFRYNAMGWYRQAPVKERELVAAISSSGGSTYYADSVKGRFTISRDNAKNTVYLQMNSLKPEDPEVYYCAAPTRSRFKGYYYWGQGTQVTVSS | high polyreactivity |
| QVQLVESGGGLVQAGGSLRLSCAASGRTFRKYAMGWYRQAPGKERELVAAISWSGGSTYYANSVKGRFTISRDNAKNTVYLQMNSLKPEDTAVYYCAAVPVHTGSLYWGFTTGYDYWGQGTQVTVSS | low polyreactivity |
| QVQLVESGGGLVQAGGSLRLSCAASGSIFSTYAMGWSRQAPGKERELVAAITTSGGRTYYADSVKGRFTISRDNAKNTVYLQMNSLKPEDTAVYYCNAVRGGRYGLDYWGQGTQVTVSS | high polyreactivity |

| Sequence | polyreactivity (PSR sort gate) |
| --- | --- |
| QVQLEESGGGLVQAGGSLRLSCAASGRIFNTNAMGSYRQAPGKERELVAGITYSGDSTYYADSVKGRFTISRDNAKNTVYLQMNSLKPEDTAVYYCATDPASPYLYDYWGQGTQVTVSS | low polyreactivity |
| QVQLVESGGGLVQAGGSLRLSCAASGITFSSNAMGWSRQAPGKERELVAAISSSGGRTYYADSVKVRFTISRDYAKNTVYLQMNSLKPEDTAVYYCAKTSRYYYYSRLYYWGQGTKVTVSS | high polyreactivity |
| QVQLVESGGGLVQAGGSLRLSCAASGAIFRYYAMGWYRPAPGKEREFVAAIRGSGGSPYYADSVKGRFTISRDNAKNTVYIQMISLKPEDTAVYYCAARKYSDRQVWYCYWGHGTQVTVSS | high polyreactivity |
| QVQLVESGGGLVQAGGSLRLSCAASGLIFTVNAMGWYRQAPGKERELVAAISQSGGSTYYADSVKGRFTISRDNAKNTVYLQMNSLKPEDTAVYYCARGSWRHFRLYGFDYWGQGTQLTVSS | low polyreactivity |
| QVQLVESGGGLVQAGGSLRLSCAASGSTFRANAMGRYRQAPGKERELVAAINSGGSTYYADSVKGRFTISRDNAKNTVYLQMNSLKPEDTAVYYCNKRYWRSDYWGQGTQVTVSS | high polyreactivity |
| QVQLVESGGGLVQAGGSLRLSCAASGNNFRSYAMGWYRQATGKERELVAAISGRGGSTYYADSVKGRFTISRDNAKNTVYLQMNSLKPEDTAVYYCAAESRRVNYANDYWGQGTQVTVSS | high polyreactivity |
| QVQLQESGGGLVQASGSPRLSCAASGNIFDADIMGWYRQAPGKQCELVASITDGGSTNYADSEKGRFTISSDNAKNTVYLQKNSLKPEDTAVYYCAAISYRDIPTYFDYDSDYFYWGQGTHVTVSS | high polyreactivity |
| QVQLVESGGGLVQAGGSLRLSCAASGSTFLRNVMGWYRQAPGKESELVAAISSRGGSTHYADSVKGRFTISRDNAKNSVYLQMNILKPEDTAVYYCNAERSAAQYVRAAYDYWGQGTQVTVSS | low polyreactivity |
| QVQLVESGGGLVQAGGSLRLSCAASGFTFTKNAMGWYRQAPGKEREMVAAITWRGGSTYYADSVKGRFTISRDNAKNTVYLQMNSLKPEDTAVYYCAADGGSLYDWGQGTQVTVSS | low polyreactivity |
| QVQLVESGGGLDQAGGSLRLSCADSGSIFVYYAMGWYRQAPGKERELVAAITTSGGSTYYADSVKGRFTISRDNAKNTVYLQMNSLKPEDTAVYYCAAELLAWYWSYSVPWPYDYWGQGTQVTVSS | low polyreactivity |
| QVQLVESGGGLVQAGGSLRLSCAASGSTFWSYAMGWSRQAPGKERELVAAITDSGGSTYYADSVKGRFTISRDNAKNTVYLQLNSLKPEDTAVYYCAVDSRYTAPLRPLGPFDYWGQGTQVTVSS | low polyreactivity |
| QVQLVETGGGLVQAGGSLRLSCAASGSIFEYNAMGWYRQAPGKERELVAAISWSSGTTYYADSVKGRFTISRDNAKNSVYLQMNSLKPEDNAVYYCNAGRYGKDSVYWGQVTQVTVSS | low polyreactivity |
| QVQLVESGGGLVHAGGSLRLSCAASGSTFYGYTMGWYRQAPGKERELVAVITSGGSTYYADSVKGRFTISRDNAKNTVYLQMNSLKPEDTAVYYCAKRYGYPAYGRPWRIGRTYDYWGQGTQVTVSS | low polyreactivity |
| QVQLVESGGGLVQAGGSLRLSCAPSGSTFNYNAMVWYRQAPGKERELVARISWRGGSTYYADSVKGRFTISRDNAKNTVYLQMNSLKPEATAVYYCAATRYWYGSTYDYWGQGTQVTVSS | high polyreactivity |
| QVQLVESGGGLVQAGGSLRLSCAASGITIPVYMGWYRQPPGKERELVASISTIGGTTYYADSVKGRFTITRDNAKNTVYLQMNRLKPEDSAVYYCAADHPWSWYDYWGQGTQVTVSW | low polyreactivity |
